PMC12311110 (Nature Communications, 2025)

B1: hTBC1D13TBC: recombinant full-length human TBC1D13, RAB35 GAP, expressed in bacteria (protein)
chain: MSSLHKSRIADFQDVLKEPSIALEKLRELSFSGIPCEGGLRCLCWKILLNYLPLERASWTSILAKQRELYAQFLREMIIQPGIAKANMGVSREDVTFEDHPLNPNPDSRWNTYFKDNEVLLQIDKDVRRLCPDISFFQRATDYPCLLILDPQNEFETLRKRVEQTTLKSQTVARNRSGVTNMSSPHKNSVPSSLNEYEVLPNGCEAHWEVVERILFIYAKLNPGIAYVQGMNEIVGPLYYTFATDPNSEWKEHAEADTFFCFTNLMAEIRDNFIKSLDDSQCGITYKMEKVYSTLKDKDVELYLKLQEQNIKPQFFAFRWLTLLLSQEFLLPDVIRIWDSLFADDNRFDFLLLVCCAMLMLIREQLLEGDFTVNMRLLQDYPITDVCQILQKAKELQDSK
modifications: left off: GST, end not stated, cleaved
notes: recombinant full-length human TBC1D13, RAB35 GAP, expressed in bacteria
B2: GFP-RAB10T23N (protein, UniProt P61026 1-200, looked up, variant T23N)
Ras-related protein Rab-10: MAKKTYDLLFKLLLIGDSGVGKNCVLFRFSDDAFNTTFISTIGIDFKIKTVELQGKKIKLQIWDTAGQERFHTITTSYYRGAMGIMLVYDITNGKSFENISKWLRNIDEHANEDVERMLLGNKCDMDDKRVVPKGKGEQIAREHGIRFFETSAKANINIEKAFLTLAEDILRKTPVKEPNSENVDISSGGGVTGWKSKCC
modifications: GFP fusion

Legend:
[1] = molecular target: T1, hRetromer (Homo sapiens, UniProt O75436+Q96QK1+Q9UBQ0); assay: Isothermal titration calorimetry (ITC) of binding to Retromer; conditions: ITC, 25 °C, 530 µM TBC1D13 titrated into 14 µM Retromer, mean of triplicate titrations
T1 construct: GST (pGEX4T-2, thrombin site plus linker) (N, cleaved yes); made in house; host or cells: E. coli BL21 (DE3)
Procedure: All the bacteria constructs were expressed in BL21 (DE3) cells using the autoinduction method. In brief, cultures grown in complex medium were incubated at 37 °C for 4 h, followed by overnight growth at 20 °C before harvesting for purification. […] In all cases, the soluble fractions clarified by centrifugation were loaded onto pre-equilibrated glutathione sepharose (GE healthcare) for initial purification. For Retromer, an additional Talon® resin purification step was performed to ensure the correct stoichiometry. GST-tag removal was carried out co-column overnight by adding thrombin for Human Retromer and PreScission protease for TBC1D13. The GST-tag removed fraction was further purified by size-exclusion chromatography (SEC) using a Superdex 200 (16/600) column (GE Healthcare) equilibrated with buffer containing 50 mM Tris-HCl pH 7.5, 200 mM NaCl, 2 mM β-ME.
The effect of cyclic peptide was assessed by pre-mixing 140 µM RT-D1 into 14 µM Retromer before titrating with 1 mM of native DENND4C1189-1206 peptide. For the binding experiment between Retromer and TBC1D13, 530 µM of TBC1D13 was titrated into 14 µM Retromer. The effect of the cyclic peptide was tested using the same concentration of RT-D1 as described above. All ITC experiments consisted of an initial 0.4 μl (not used in data processing), followed by 12 serial injections of 3.22 μl each with 180 sec intervals. […]

[2] = system: GLUT1, LAT1, KIDINS220, ATP7A, CTR1 surface levels in HeLa cells; assay: Surface biotinylation and streptavidin purification: cell surface protein levels; format: cell-based, human; conditions: Hela cells transduced with GFP-RAB10 T23N; PAR+GFP = 100; mean of n = 3
Procedure: For every kind of protein extraction, buffers were pre-chilled, and cells and samples placed on ice. For basic western blot (WB), cells were lysed in ~ pH 7.2 phosphate buffered saline (PBS) with 1% (v/v) Triton X-100 and protease inhibitors (Thermo Fisher, A32955). The protein concentration was determined with a bicinchoninic acid (BCA) assay kit (Thermo Fisher, 23225) and equal amounts were denaturised (LDS Sample buffer (Thermo Fisher, NP0008), 3% β-mercaptoethanol (Sigma-Aldrich, M6250), 10 min at 95 °C) and resolved by SDS-PAGE on NuPAGE 4–12% precast gels (Invitrogen, NP0336BOX). Protein samples were then transferred onto methanol-activated polyvinylidene fluoride (PVDF) membrane (Immobilon-FL membrane, pore size 0.45μm; Millipore, IPFL00010). The membrane was blocked, then sequentially labelled with primary and secondary antibodies. Fluorescence detected by scanning with a LI-COR Odyssey scanner and Image Studio analysis software (LI-COR Biosciences). Typically, we performed WB in where a single blot is simultaneously probed with antibodies against 2 proteins of interest (distinct antibody species), followed by visualisation with the corresponding secondary antibodies conjugated to distinct spectral dyes. All steps were carried out on ice to prevent surface protein internalisation. […] The protein concentration was determined by BCA. […]

Row | Molecule | -TΔS [1] | Kd ([1]; single-site binding model, read-out: Kd) | CTR1 Surface (LAT1 normalized) [2]
1 | B1 | 1.0 ± 1.4 kcal/mol | 6.3 ± 1.2 µM | 
2 | B2 |  |  | 77.05
